Data as given in patent publication US20200247856A1 (SHIRE HUMAN GENETIC THERAPIES, published 2020).
Each block holds one binder with its values, some of them ahead of it.

Tests used:
[1] = biological target: T1, Activin A (R&D Systems, Catalog number 338-AC-050 CF) (UniProt P08476 311-426); assay: cell-based or functional assay
T1 sequence (looked up): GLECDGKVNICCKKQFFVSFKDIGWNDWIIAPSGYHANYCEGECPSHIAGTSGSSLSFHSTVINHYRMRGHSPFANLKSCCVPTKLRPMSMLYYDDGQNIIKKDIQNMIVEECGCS

[2] = biological target: T2, Myostatin (R&D Systems, Catalogue number 788-G8-010/CF) (UniProt O14793 267-375); assay: cell-based or functional assay
T2 sequence (looked up): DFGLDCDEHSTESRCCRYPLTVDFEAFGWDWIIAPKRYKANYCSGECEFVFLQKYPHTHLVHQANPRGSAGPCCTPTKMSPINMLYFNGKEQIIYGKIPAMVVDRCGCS

- Activin A IC50 (nM), luciferase gene reporter assay (Smad3, A204 cells) [1]: 0.8 nM
- Myostatin IC50 (nM), luciferase gene reporter assay (Smad3, A204 cells) [2]: 0.7 nM
B1: FS315K(76,81,82)E-mFc (Fc fusion, not shown: a dimerising Fc or GST)
chain: GNCWLRQAKNGRCQVLYKTELSKEECCSTGRLSTSWTEEDVNDNTLFKWMIFNGGAPNCIPCKETCENVDCGPGKECRMNEENKPRCVCAPDCSNITWKGPVCGLDGKTYRNECALLKARCKEQPELEVQYQGRCKKTCRDVFCPGSSTCVVDQTNNAYCVTCNRICPEPASSEQYLCGNDGVTYSSACHLRKATCLLGRSIGLAYEGKCIKAKSCEDIQCTGGKKCLWDFKVGRGRCSLCDELCPDSKSDEPVCASDNATYASECAMKEAACSSGVLLEVKHSGSCNSISEDTEEEEEDEDQDYSFPISSILEW

- Activin A IC50 (nM), luciferase gene reporter assay (Smad3, A204 cells) [1]: 0.5 nM
- Myostatin IC50 (nM), luciferase gene reporter assay (Smad3, A204 cells) [2]: 0.5 nM
B2: ActRIIB-Fc protein (R&D Systems, Catalogue number 339-RBB-100) (Fc fusion, UniProt Q13705 19-134, looked up, not shown: a dimerising Fc or GST)
chain: SGRGEAETRECIYYNANWELERTNQSGLERCEGEQDKRLHCYASWRNSSGTIELVKKGCWLDDFNCYDRQECVATEENPQVYFCCCEGNFCNERFTHLPEAGGPEVTYEPPPTAPT
